# Assay results reported in the nanobody polyreactivity screen of Harvey et al. (2022).
# Experiment: yeast display, Sf9 membrane polyspecificity reagent, FACS + sequencing; frameworks hold sequencing errors
# Summary of the method: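 In a synthetic yeast display library (Saccharomyces cerevisiae BJ5465), nanobody expression was induced with galactose for 36–48 hours. FACS gates were set low and high (top ~1%) using anti-HA fluorescence for expression and streptavidin fluorescence for binding of the Sf9 membrane reagent. Each polyreactivity label is drawn from the gate of origin.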
row,Sequence,polyreactivity (PSR sort gate)
1,QVQLVESGGGLVQAGGSLRLSCAASGGTFPYSAMGWYRQAPGKERELVAAISRSGARTYYADSVKGRFTISRDNAKNTVYLQMNSLKPEDTAVYYCATDNTYGYDYWGQGTQVTVSS,high polyreactivity
2,QVQLVESGGGLVQAGGSLRLSCAASGGTFQLNAMGWYRQAPGKERELVATITTGGSTYADSVKGRFTISRDNAKNTVYLQMNSLKPEDTAVYYCNKTCFLVKLDYWGQGTQVTVSS,low polyreactivity
3,QVQLVESGGGLVQAGGSLRLSCAASGGTFQRYVMGWYRQAPGKERELVAAISRSGSTYADSVKGRFTISRDNAKNTVYLQMKSLKPEDTAVYYCNVVSYYRYYLHGYDYWGQGTQVTVSS,high polyreactivity
4,QVQLVESGGGLVQAGGSLRLSCAASGGTFQYHAMGWYRQAPGKERELVAAITRSGGSTYYADSVKGRFTISRDNAKNTVYLQMNSLKPEDTAVYYCAVRYVYGYPRYNYWGQGTQVTVSS,high polyreactivity
5,QVQLVESGGGLVQAGGSLRLSCAASGGTFRNNAMGWYRQAPGKERELVAAISWSGGRTYYADSVKGRFTISRDNAKNTVYLQMNSLKPEDTAVYYCAASYSGRQDRYPHYDYWGQGTQVTVSS,low polyreactivity
6,QVQLVESGGGLVQAGGSLRLSCAASGGTFRPNAMGLYRQAPGKERELVAAISYTGSTYYADSVKGRFTISRDNAKYTVYLQMNSMKPEDTAVYYCAAYGYHRYYLYDYWGQGTQVTVSS,low polyreactivity
7,QVQLVESGGGLVQAGGSLRLSCAASGGTFRYYALGWYRQAPGKERALVAAISSGGSTNYADSVKGRFTISRDNAKNTVYLQMNSLKPEDTAVYYCAADVIYYYAYYTYDYWGQGTQVTVSS,low polyreactivity
8,QVQLVESGGGLVQAGGSLRLSCAASGGTFSFNAMGWSRQAPGKERELVATISWDGGSTYYADSVKGRFTISRDNAKNTVYLQMYSLKPEDTAVYYCNKYVFDRYIYETEYDYWGQGTQVTVSS,high polyreactivity
9,QVQLVESGGGLVQAGGSLRLSCAASGGTFSFYTMVWYRQAPGKERELVAAIDSTGRTNYADSVKGRFTISRDNAKNTVYLQMNSLKPEDTAVYYCAAGPPRADYDYWGQGTQVTVSS,low polyreactivity
10,QVQLVESGGGLVQAGGSLRLSCAASGGTFSNNAMGWYRQAPGKERELVAAISNSGGRTYYADSVKGRFTISRDNAKNTVYLQMNSLKPEDTAVYYCNVRRGYWHPGYGWANYDYWGQGTQVTVSS,high polyreactivity
11,QVQLVESGGGLVQAGGSLRLSCAASGGTFSPNTMGWYRQAPGKERELVAAISSSGSTSYADSVKGRFTISRDNAKNTVYLQMNSLKPEDTAVYYCNADDTISYYASGFDNYHYWGQGTQVTVSS,low polyreactivity
12,QVQLVESGGGLVQAGGSLRLSCAASGGTFSPYAMGWYRQAPGKERELVAVIRSDVTTNYADSVKGRFTISRDNAKNTVYLQMNSLKPEDTAVYYCAVQYLGYGGLFPLDYWGQGTQVTVSS,low polyreactivity
13,QVQLVESGGGLVQAGGSLRLSCAASGGTFSPYDMGWYRQAPGKERELVASITGSGGSTYYADSVKGRFTISRGNAKNTVYLQMNSLKPEDTAVYYCAAQGYWTYWPYLLRLYDYWGQGTQVTVSS,low polyreactivity
14,QVQLVESGGGLVQAGGSLRLSCAASGGTFSRNAMGWYRQAPGKERELVAAINSSGVSTSYADSVKGRFTISRDNAKNTVYLQMNSLKPEDTAVYYCADETSSAEVDYWGQGTQVTVSS,low polyreactivity
15,QVQLVESGGGLVQAGGSLRLSCAASGGTFSRNAMGWYRQAPGKERELVAAITSGGRTNYADSVKGRFTISRDNAKNTVYLKMNSLKAEDTAVYYCAARKGKETLYHSTPPYYYWGQGTQVTVSS,high polyreactivity
16,QVQLVESGGGLVQAGGSLRLSCAASGGTFSSNAMGWYRQAPGKERELVAAITWSGGSTYYADSVKGRFTISRDNAKNTVYLQMNSLKPEDTAVYYCNARNQWRTVGKYDYWGQGTQVTVSS,low polyreactivity
17,QVQLVESGGGLVQAGGSLRLSCAASGGTFSSNDMGWYRQAPGKERELVAAISWSGSSTDYADSVKGRFTISRDNAKNTVYLQMNSLKPDDTAVYYCNTDYWEITYSGVIWPEYDYWGQCTQVTVSS,low polyreactivity
18,QVQLVESGGGLVQAGGSLRLSCAASGGTFSTNAMGWYRQAPGNERELVAAISLSGGRTDADSVKGRFTISRDNAKNTVYLQMNSLKPEDTAVYYCNADSAGITRARSELDYWGQGTQVTVSS,low polyreactivity
19,QVQLVESGGGLVQAGGSLRLSCAASGGTFSVYGMGGYRQAPGKERELVAAITLSGGRTYYADSVKGRFTISRDNATNTLSLQMNSLQPEDTAVYYCNTLPWSRTKRDYWGQGTQGTVSS,low polyreactivity
20,QVQLVESGGGLVQAGGSLRLSCAASGGTFSYNAMGWYRQAPGKERELVAAISWSGTRTYYADSVKGRFTISRDNAKNTVYLQMNSLKPEDTAVYYCNKTPPNRGRYDYCGQGTQVTVSS,low polyreactivity
21,QVQLVESGGGLVQAGGSLRLSCAASGGTFSYYAMGWYRQAPGKERELVASISTDGGSTYYADSVKGRFTISRDNAKNTVYLQMNSLKPEDTAVYYCNARPRGYSDRYGYWGQGTQVTVSS,high polyreactivity

row,Sequence,polyreactivity (PSR sort gate)
1,QVQLVESGGGLVQAGGSLRLSCAASGGTFSYYTMGWYRQAPGKERELVARISKNGGRTYYADSVKGRFTISRDNAKNTVYLQMNCLKPEDTAVYYCNAAGRTYDFSGGRTMEYWGQGTQVTVSS,high polyreactivity
2,QVQLVESGGGLVQAGGSLRLSCAASGGTFTFYAMGWYRQAPGKERELVATINWSGGSTYYADSVKGRFTNSRDNAKNTVYLQMNSLKPEDTAVYYCNAAWAYKSVEYWGQGTQVTVSS,low polyreactivity
3,QVQLVESGGGLVQAGGSLRLSCAASGGTFVGYAMGWSRQAPGKERELVASITRRGGNTYYADSVKVRFTISRDNATNTFYLQMNSLNPEDTAVYYCANALVVQYGRYTGHPYDYWGQGTQVTVSS,high polyreactivity
4,QVQLVESGGGLVQAGGSLRLSCAASGGTFVYYTMGWYRQAPGKERELVAAITQSGSTTYYADSVKGRFTISRDNAKNTVYLQMNSLKPEDTAVYYCARRYGTWNAYDYWGQGTQVTVSS,low polyreactivity
5,QVQLVESGGGLVQAGGSLRLSCAASGGTFYGYAAMGWYRQAPGKERELVAAISRSGGRTYYADSVKGRFTISRDNAKNTVYLQMNSLKPEDTAVYYCNVGFYPYYFLTYQGGDYWGQGTQVTVSS,high polyreactivity
6,QVQLVESGGGLVQAGGSLRLSCAASGGTFYGYAMGWYRQAPGKERELVAAISYNGGNTYYADSVKGRFTISRDNAKNTVYLQMNSLKAEDTAVYYCAAGYSYRYGYWGQGTQLTVSS,low polyreactivity
7,QVQLVESGGGLVQAGGSLRLSCAASGGTFYPYAMGWYRQAPGKERELVAAISASDDNTYYADSVKGRFTISRDNAKNTVYLQMNSLKPEDTAVYYCAKRSYFYPYGYWGQGTQVTVSS,high polyreactivity
8,QVQLVESGGGLVQAGGSLRLSCAASGGTFYRNAMGWSRQAPGKERELVAAINYRGDRTYYADSVKGRFTISRDNAKNTVYLQMNSLKPEDTAVYYCAADSYPAYLGFVGFDYWGQGTQVTVSS,low polyreactivity
9,QVQLVESGGGLVQAGGSLRLSCAASGGTFYRYAMGWYRQAPGKERELVAVISKRGGTTYYADSVKGRFTISRDNAKITVYLQMNSLKPEDTAVYYCADRPYYWGQGTQVTVSS,high polyreactivity
10,QVQLVESGGGLVQAGGSLRLSCAASGGTFYSYAMGWYRQAPGIEREVVAAISRRGGSTYYADSVKGRFTISRDNAKNTVYLLMNSLKPEDTAVYFCNTYIYQVRDDYWGQGTQVTVSS,high polyreactivity
11,QVQLVESGGGLVQAGGSLRLSCAASGGTFYYYAMGWYRQAPGKERELVAAISRDGSTYYADSVKGRFTISRDNAKNTVYLQMNSLKPEDTAVYYCAVRTRRKYGYWGQGTQVTVSS,high polyreactivity
12,QVQLVESGGGLVQAGGSLRLSCAASGGTIAPYAMGWSRQAPGKERELVATISYSGTSTNYADSVKGRFTISRDNAKNTVYLQMNSLKPEDTAVYDCAKRYHQYRWRGWLWGFDYWGQGNQVTVSS,high polyreactivity
13,QVQLVESGGGLVQAGGSLRLSCAASGGTIFAYAMGWYIQAPRERELVPAISWSGDSTYYADSLKGRFTISRDNAKNTVYLQMNSLKPEETAVYYCAADYGFEFYYWGQGTQVTVAS,high polyreactivity
14,QVQLVESGGGLVQAGGSLRLSCAASGGTIGSNTMGWYRQAPGKERELVAAITSGVSTNYADSVKGRFTISRDNAKNTVYLQMISLKPEDNAVYYCAKVLWSEEYETIITSYGFDYWGQGTQVTVSS,low polyreactivity
15,QVQLVESGGGLVQAGGSLRLSCAASGGTINGNTMGWYRQAPGKERELVAVIDWSGGSTYYADSVKGRFTISRDNAKNTVYLQMNSLKPEDTAVNYCNADSDAQFREPKGMYYWGQGTQVTLSS,low polyreactivity
16,QVQLVESGGGLVQAGGSLRLSCAASGGTIRVYAMRWYRQAPGKERELVAAITGRGGSTYYADSVKGRFTISRDNAKNTVYLQMNSLKPEDTAVYYCAKDPVTTYYKYDYWGQGTQVTVSS,low polyreactivity
17,QVQLVESGGGLVQAGGSLRLSCAASGGTIVYYAMGWYREAPGKERELVAAINWSGGSTYYADSVKGRFTISRDKAKNTVYLQMNSLKPEDTAVLLLQRSGLRRSGVWFDYWGQGTQVTVSS,low polyreactivity
18,QVQLVESGGGLVQAGGSLRLSCAASGGTIYFYDMGWYRQAPGKEREFVAAIDGSAGRTYYADSVKGRFTISRDNAKNTVYLQMNSLKPEDTAVYYCAADWAQQSEQEYGTTYDYWGQGTQVTVSS,low polyreactivity
19,QVQLVESGGGLVQAGGSLRLSCAASGGTLKYYAMGLYRQAPGKERELVATISSRGGSTYYADSVKGRFTISRDNAKNTVYLQMNSLKPEDTAVYYCARRYWVQSRYPELDYWGQGTQVTVSS,high polyreactivity
20,QVQLVESGGGLVQAGGSLRLSCAASGGTLPKYAMGWYRQAPGKERELVARITWNDGTTYYADSVKGRFTISRDNAKNTVYLQMNSLKPEDTAVYYCNTDRAYWFLYPFSYYYWGQGTQVTVSS,low polyreactivity
